Source: the supplement of paper PMC9170038

Assays:
[1] = system: MS2 coat protein; experiment: apparent KD of MS2 coat protein; designed switch direction (-1 OFF switch, 1 ON switch): 1; higher = weaker reporter binding
Procedure, shortened: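 Designed RNA switches were transcribed on Illumina chips by stalled E. coli RNA polymerase and titrated with SNAP-549-labelled MS2 coat protein from 0.7 or 1.5 nM, doubling to 3 µM. Step length ran from 0.8–1.5 h at the lowest concentration to 10–20 min at the highest. The apparent KD is the median over clusters for each design, from curve-fitted normalised cluster fluorescence.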

[2] = system: MS2 coat protein; experiment: apparent KD of MS2 coat protein; higher = weaker reporter binding; conditions: Eterna round: R107
Procedure, shortened: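 Apparent KD was obtained for each design as the median of normalised binding-curve fits over its clusters. RNA switches transcribed on-chip from Illumina sequencing clusters were titrated with SNAP-549-labelled MS2 coat protein (twofold steps, 0.7 or 1.5 nM to 3 µM) in 100 mM Tris-HCl pH 7.5, 80 mM KCl, 4 mM MgCl2, without or with constant ligand.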

[3] = input ligand: microRNA oligo, concentration not stated
[4] = Eterna round: R95, input ligand: FMN 200 uM
[5] = Eterna round: R95, input ligand: microRNA oligo, concentration not stated
[6] = Eterna round: R95, input ligand: none
[7] = input ligand: theophylline 20 uM
[8] = input ligand: theophylline 2 mM
[9] = input ligand: tryptophan 2.4 mM

UUAACAUGAGGAUCACCCAUGUAUACGUAGUUUGCAUUUUGACAGGAUAUUGAAUAUCUAUAUAGCAAGAAGGGUCGUUAGUCU [JR_SSNG3_Sub007] (Eterna round: R96, puzzle: Same State NG 3)
apparent KD of MS2 coat protein ([1]; input ligand: FMN 200 uM): 61 nM | apparent KD of MS2 coat protein [1, 3]: 49.1 nM | apparent KD of MS2 coat protein ([1]; input ligand: none): 56.7 nM

UUAAUAAUGAUAGGAUAUACAUGAGGAAUUCUCGUAGAAGGAUCAUGACAUGAGGAUCACCCAUGUAACGCUCGAAAGAGCGUA [Mat - Same State NG 1 - JL mod - D39] (Eterna round: R96, puzzle: Same State NG 1)
apparent KD of MS2 coat protein ([1]; input ligand: FMN 200 uM): 513 nM | apparent KD of MS2 coat protein [1, 3]: 394 nM | apparent KD of MS2 coat protein ([1]; input ligand: none): 662 nM

UUGCUCGUGUGAGGAUAUGCCGCCGUUUCGGCUGCAGAAGGUACUACGUUACAUGAGGAUCACCCAUGUCUCUGUUGUUUCGUG [salish99_SSNG1_r04_940] (Eterna round: R96, puzzle: Same State NG 1)
apparent KD of MS2 coat protein ([1]; input ligand: FMN 200 uM): 18.1 nM | apparent KD of MS2 coat protein [1, 3]: 13.9 nM | apparent KD of MS2 coat protein ([1]; input ligand: none): 16.5 nM

UUUAGUUGCGGGCAGGAUAUGUAUUAAAAUACAUGAGGAUCACCCAUGUGCGGGUAUAACACCCGACAGAAGGGCCAAUCGCAAC [Laonerce - 6] (puzzle: Same State 2)
apparent KD of MS2 coat protein [1, 4]: 22.2 nM | apparent KD of MS2 coat protein [1, 5]: 142 nM | apparent KD of MS2 coat protein [1, 6]: 240 nM

AUAAGAAACACAGGAUAUACCGCACUUAACGCGGUAGAAGGGUGGGACAUGAGGAUCACCCAUGUGGCCCGGGCGCCGGACCGC [Edquzative] (Eterna round: R96, puzzle: Same State NG 1)
apparent KD of MS2 coat protein ([1]; input ligand: FMN 200 uM): 556 nM | apparent KD of MS2 coat protein [1, 3]: 10 nM | apparent KD of MS2 coat protein ([1]; input ligand: none): 122 nM

UUUGCAUGACGAGGAUAUCAUUUAUUUCUUGAUUGAGAAGGCGUUUUUUUUAUUACCUAACAUGAGGAUCACCCAUGUGACAGU [JR_SSNG1_Sub045] (Eterna round: R96, puzzle: Same State NG 1)
apparent KD of MS2 coat protein ([1]; input ligand: FMN 200 uM): 14.8 nM | apparent KD of MS2 coat protein [1, 3]: 19.6 nM | apparent KD of MS2 coat protein ([1]; input ligand: none): 18.4 nM

AGUCCAGCCUGAGCUGGACAAAAGCAUGUACAUGAGGAUCACCCAUGUUCAUGUACAAGCUUUUUGCUCGUCUUGCU [salish99_208a_r3_105x] (puzzle: Sensor for hsa-mir-208a)
apparent KD of MS2 coat protein [1, 4]: 578 nM | apparent KD of MS2 coat protein [1, 5]: 15.7 nM | apparent KD of MS2 coat protein [1, 6]: 680 nM

GGAUGAUUAAUAGGAUAUUAUUUGUAAUUUGGUUAAGAAGGAUUAAUGAUUUAAACGACCUGUUACAUGAGGAUCACCCAUGUU [JR_SSNG1_Sub089] (Eterna round: R96, puzzle: Same State NG 1)
apparent KD of MS2 coat protein [1, 3]: 76.5 nM

UUAAUAAUGAUAGGAUAUACAUGAGGAAUCCUCGUAGAAGGAUCAUGACAUGAGGAUCACCCAUGUAACGCUCAGAAGAGCGUA [Mat - Same State NG 1 - JL mod - D43] (Eterna round: R96, puzzle: Same State NG 1)
apparent KD of MS2 coat protein ([1]; input ligand: FMN 200 uM): 738 nM | apparent KD of MS2 coat protein [1, 3]: 30.9 nM | apparent KD of MS2 coat protein ([1]; input ligand: none): 516 nM

GAGAGAGGGCGAGGAUAUUCGGUGAUAAUGAUGGGAGAAGGCGCAGACAUGAGGAUCACCCAUGUGGGAAUAAUCCAGAGAGAG [Parity 13 - Jieux - Same State NG 1] (Eterna round: R96, puzzle: Same State NG 1)
apparent KD of MS2 coat protein ([1]; input ligand: FMN 200 uM): 151 nM | apparent KD of MS2 coat protein [1, 3]: 111 nM | apparent KD of MS2 coat protein ([1]; input ligand: none): 185 nM

GUGGUCAGACAUGAGGAUCACCCAUGUGGAAUAAAUAACGGUGAGGAUAUUGAAUAUAGGAUAUACGAGAAGGCAUGAUUGGUG (Eterna round: R96, puzzle: Same State NG 3)
apparent KD of MS2 coat protein ([1]; input ligand: FMN 200 uM): 208 nM | apparent KD of MS2 coat protein [1, 3]: 114 nM | apparent KD of MS2 coat protein ([1]; input ligand: none): 123 nM

GCCGCGUUUCGCGCCUACAUGAGGAUCACCCAUGUUUGUAGGCAGGAUAUCGUUUGCUUUGCAAGCGAGAAGGGCUGUUGUGGC [salish99_SSNG3_R04_015] (Eterna round: R96, puzzle: Same State NG 3)
apparent KD of MS2 coat protein ([1]; input ligand: FMN 200 uM): 44.3 nM | apparent KD of MS2 coat protein [1, 3]: 39.2 nM | apparent KD of MS2 coat protein ([1]; input ligand: none): 50.7 nM

GGUAAACAUGAGGAUCACCCAUGUAAUAAUAUGGGAGGAUAUGGGAAUUAAUUAAUUAAACCAGAAGGCCUAAUGG [Mat - Same State 1 - D86] (puzzle: Same State 1)
apparent KD of MS2 coat protein [1, 4]: 133 nM | apparent KD of MS2 coat protein [1, 5]: 424 nM | apparent KD of MS2 coat protein [1, 6]: 628 nM

GCUAGGAAUUAAGCCAACAUGAGGAUCACCCAUGUAUGUUGGUAGGAUAUCGUUUGCAAAGCAAACGAGAAGGGCUAACCUAGC [Mat - Same State NG 3 - JL Mod - D72] (Eterna round: R96, puzzle: Same State NG 3)
apparent KD of MS2 coat protein ([1]; input ligand: FMN 200 uM): 80.9 nM | apparent KD of MS2 coat protein [1, 3]: 55.8 nM | apparent KD of MS2 coat protein ([1]; input ligand: none): 85.3 nM

GGAGCCGGCACUGAGGAUAUUCAUAUUAAAACAUGAGGAUCACCCAUGUAGGCCAGAAGGCCUUGGGAGAAGGCAGGCCGGCCCG [Bibimoar - 1] (puzzle: Same State 2)
apparent KD of MS2 coat protein [1, 4]: 18.8 nM | apparent KD of MS2 coat protein [1, 5]: 177 nM | apparent KD of MS2 coat protein [1, 6]: 276 nM

UUAUAACAUGAGGAUCACCCAUGUCAACAAAGUCGAGGAUAUGGGCAUAGAGGAUAAGAACCAGAAGGCGAAUAUU [Mat - Same State 1 - Mod of UCT - D39] (puzzle: Same State 1)
apparent KD of MS2 coat protein [1, 4]: 70.8 nM | apparent KD of MS2 coat protein [1, 5]: 150 nM | apparent KD of MS2 coat protein [1, 6]: 163 nM

GGUCCAGCCUGAGCUGGACAAAAGCAUGUACAUGAGGAUCACCCAUGUCAUGUACAAGCUUUUUGCUCGUCUUAAGU [Mat - hsa-mir-208a - 86] (puzzle: Sensor for hsa-mir-208a)
apparent KD of MS2 coat protein [1, 4]: 508 nM | apparent KD of MS2 coat protein [1, 5]: 16.8 nM | apparent KD of MS2 coat protein [1, 6]: 927 nM

UGGUACAUGGGAGGAUAUCCUCAGGAGACAUGAGGAUCACCCAUGUAAUUAAAGCCGAAAGGCAUGGAGAAGGCCCAUGUACCU [JL SSNG1 3.79] (Eterna round: R96, puzzle: Same State NG 2)
apparent KD of MS2 coat protein ([1]; input ligand: FMN 200 uM): 20.1 nM | apparent KD of MS2 coat protein [1, 3]: 172 nM | apparent KD of MS2 coat protein ([1]; input ligand: none): 131 nM

AACCAACAAAUAAAACAAGCGUGCUCGUCACAUGAGGAUCACCCAUGUUUAAGCGCUGUUCCUACAUCCGCAGCGCC [Inbitiar] (puzzle: Sensor for hsa-mir-208a)
apparent KD of MS2 coat protein [1, 4]: 178 nM | apparent KD of MS2 coat protein [1, 5]: 32.5 nM | apparent KD of MS2 coat protein [1, 6]: 232 nM

UUGAAGAAUUAAGGAUAUUGAAUACAUAUGUUUAACAUGAGGAUCACCCAUGUGGGUUGCGGUAUCGAGAAGGUAAAAUAAUAG [Mat - Same State NG 2 - JL mod - D4] (Eterna round: R96, puzzle: Same State NG 2)
apparent KD of MS2 coat protein ([1]; input ligand: FMN 200 uM): 118 nM | apparent KD of MS2 coat protein [1, 3]: 91.8 nM | apparent KD of MS2 coat protein ([1]; input ligand: none): 110 nM

CGGGUGAUCGUAGGAUAUCUAGGAUAUGAACGAGGAUCACCCGAGCAGCAUCAGCGCAUCAGAGGAGAGAAGGACGAUGAUGCG [pwkr ssNG2 2F5 2FMN.19] (Eterna round: R96, puzzle: Same State NG 2)
apparent KD of MS2 coat protein ([1]; input ligand: FMN 200 uM): 20.5 nM | apparent KD of MS2 coat protein [1, 3]: 21.7 nM | apparent KD of MS2 coat protein ([1]; input ligand: none): 34 nM

CUGAGCGAUCAAGGAUAUCACGUCGAUUAGACGUGAGAAGGUGAUCAUAACAUGAGGAUCACCCAUGUAUUACAUGAAGCUCAG [SSNG1/2-A2] (Eterna round: R96, puzzle: Same State NG 1)
apparent KD of MS2 coat protein ([1]; input ligand: FMN 200 uM): 386 nM | apparent KD of MS2 coat protein [1, 3]: 146 nM | apparent KD of MS2 coat protein ([1]; input ligand: none): 1620 nM

UAAUAGGUCCAGAACGUACCAGGUGAUCAACGAGGACCGGUACGGCCGCCACUCGAAACAUGAGGAUCACCCAUGUAACUGGACC [|T'-M'-Trp-Ms2|_Design 2_ML]
apparent KD of MS2 coat protein ([2]; input ligand: arginine 13.2 mM): 173 nM | apparent KD of MS2 coat protein ([2]; input ligand: none): 72.9 nM | apparent KD of MS2 coat protein [2, 7]: 95.3 nM | apparent KD of MS2 coat protein [2, 8]: 518 nM | apparent KD of MS2 coat protein [2, 9]: 61.4 nM

GUUAUGGACCUGGAUACCAGCUGGUACAAGGGCGGUCUACAUGAGGAUCACCCAUGUGUCAGCCCUUGGCAGCCAGCAACCCACU [Cele]
apparent KD of MS2 coat protein ([2]; input ligand: arginine 13.2 mM): 10.6 nM | apparent KD of MS2 coat protein [2, 7]: 16.7 nM | apparent KD of MS2 coat protein [2, 9]: 9.57 nM

AAUCAUGAAAACAUGACAUGAGGAUCACUCCGAGGACCGGUACGGCCGCCACUCGCGAGGAGGCGGACAUGAGGAUCACCCAUGU [#02 Tryptophan A Same State]
apparent KD of MS2 coat protein ([2]; input ligand: arginine 13.2 mM): 49.2 nM | apparent KD of MS2 coat protein [2, 7]: 265 nM | apparent KD of MS2 coat protein [2, 8]: 421 nM

GAUUAAACAUGAGGAUCACCCAUGUAUAUACGAGGACCGGUACGGCCGCCACUCGAAAACGAGUAUCCUCGAAUAAACAUGAUAA [AK 2 SS Trypt (A)]
apparent KD of MS2 coat protein ([2]; input ligand: arginine 13.2 mM): 27.7 nM | apparent KD of MS2 coat protein [2, 7]: 48.3 nM | apparent KD of MS2 coat protein [2, 8]: 52.8 nM

GAACAGUCGGACAUGAGGAUCACCCAUGUGCGAGGACCGGUACGGCCGCCACUCGACAAGGGCGGUCCCGAAGCGAACAUACGCG [Cecearla]
apparent KD of MS2 coat protein ([2]; input ligand: arginine 13.2 mM): 14.9 nM | apparent KD of MS2 coat protein [2, 7]: 43.4 nM | apparent KD of MS2 coat protein [2, 8]: 34.4 nM

UACAUGAGGAUCACCCAUGUAUGUAUCGAAGGAGCGCGUGUAAACGCAGGUAGGUCGCGAACAUGAGGAUCACACAUGAGGAUCA [Same State Arginine A]
apparent KD of MS2 coat protein ([2]; input ligand: arginine 13.2 mM): 20.9 nM | apparent KD of MS2 coat protein [2, 7]: 31.1 nM | apparent KD of MS2 coat protein [2, 8]: 37.5 nM | apparent KD of MS2 coat protein [2, 9]: 29.3 nM

GCACGAGUAAGACCUGACUUCAACAAUGAUACCAGACUAGUAAACGUCCCUUGGCAGCAUCAGACAUGAGGAUCACCCAUGUGGC [theeternabot_exclusion_MS2_Theo_A_44]
apparent KD of MS2 coat protein ([2]; input ligand: arginine 13.2 mM): 26.4 nM | apparent KD of MS2 coat protein [2, 7]: 39.1 nM | apparent KD of MS2 coat protein [2, 9]: 34.3 nM
